This assay concerns the target Taxol-stabilized microtubules (UniProt P02550 1-451). Put plainly: co-sedimentation; equilibrium binding of 100 nM GST–CPn0572^595-755 with increasing amounts of Taxol-stabilized MTs; apparent Kd. As to conditions: both partners purified.

Chain of Taxol-stabilized microtubules (P02550 whole entry, chain 1 of 2): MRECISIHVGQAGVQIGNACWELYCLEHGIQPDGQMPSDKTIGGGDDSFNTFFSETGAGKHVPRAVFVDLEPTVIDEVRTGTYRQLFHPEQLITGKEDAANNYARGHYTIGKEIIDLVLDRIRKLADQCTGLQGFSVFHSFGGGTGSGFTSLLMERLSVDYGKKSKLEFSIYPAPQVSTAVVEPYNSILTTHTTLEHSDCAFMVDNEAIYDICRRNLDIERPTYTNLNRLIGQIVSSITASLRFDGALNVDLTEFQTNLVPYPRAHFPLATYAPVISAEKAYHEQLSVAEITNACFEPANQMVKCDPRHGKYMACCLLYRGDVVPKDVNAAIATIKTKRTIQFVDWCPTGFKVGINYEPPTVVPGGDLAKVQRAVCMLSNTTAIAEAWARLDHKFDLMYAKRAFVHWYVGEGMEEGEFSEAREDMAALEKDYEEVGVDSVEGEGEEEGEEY
Chain of Taxol-stabilized microtubules (P02554 whole entry, chain 2 of 2, further chain): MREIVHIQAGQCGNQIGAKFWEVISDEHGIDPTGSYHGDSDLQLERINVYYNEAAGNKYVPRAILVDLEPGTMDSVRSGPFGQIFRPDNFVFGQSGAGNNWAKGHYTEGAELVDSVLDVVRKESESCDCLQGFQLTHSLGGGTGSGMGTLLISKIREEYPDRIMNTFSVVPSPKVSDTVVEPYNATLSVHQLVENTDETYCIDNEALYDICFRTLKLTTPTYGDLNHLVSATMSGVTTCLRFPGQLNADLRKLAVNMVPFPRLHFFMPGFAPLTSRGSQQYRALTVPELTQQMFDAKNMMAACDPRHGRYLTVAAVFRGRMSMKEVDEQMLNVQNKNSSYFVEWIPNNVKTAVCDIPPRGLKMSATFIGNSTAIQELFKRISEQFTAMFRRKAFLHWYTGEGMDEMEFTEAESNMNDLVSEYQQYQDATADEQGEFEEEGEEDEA

B1: GST–CPn0572^595-755 (domain or fragment, Chlamydia pneumoniae (Cpn GiD), UniProt Q9Z7Y1 595-755, looked up)
chain: VATTITPQARTASTSTTSIGTGTESTSTTSTGTGTGSVSTQSTGVGTPTTTTRSTGTSATTTTSSASTQTPQAPLPSGTRHVATISLVRNAAGRSIVLQQGGRSQSFPIPPSGTGTQNMGAQLWAAASQVASTLGQVVNQAATAGSQPSSRRSSPTSPRRK
notes: Cloned into a modified pGEX-5X-1 in which the factor Xa site is replaced by a TEV protease site; source: E. coli Rosetta (DE3), purified (glutathione agarose beads)
On to B1, for which the Kd stood at 70 nM.

The values are drawn from PMC11444262, “Direct targeting of host microtubule and actin cytoskeletons by a chlamydial pathogenic effector protein” (Journal of Cell Science, 2024).
